The source of these data is PMC10511499.

The test deals with human dynein complex, wild type (tagged IC2C with the dynein subunits of 293 cells) (told two ways: 'Rat IC2C' (methods), human (results, legend) | human (endogenous in Flp-In T-REx 293 cells)) (UniProt Q14204). Description: TIRF microscopy microtubule recruitment assay; mammalian proteins; dynein or DDB on biotin-microtubules, SRP90 assay buffer with 2 mM AMP-PNP, 10 min; apparent affinity.

“human dynactin p150-CC1 (residues 224-554) (from UniProt Q14203-1 224-554) (domain or fragment)”: the fold greater apparent affinity than Ndel1 turned out to be 6 fold.
